What was measured:
[1] = molecular target: influenza virus envelope glycoprotein hemagglutinin (influenza virus (strain not stated for the immobilised hemagglutinin)); experiment: SPR; Biacore X100; […], HBS-N (10 mM HEPES, 150 mM NaCl, pH 7.4); […], dissociation 600 s; Langmuir 1:1 fit
[2] = molecular target: Halimeda renschii lectin HRL40 (Halimeda renschii); experiment: SDS-PAGE, non-reducing and reducing; 12% gel; samples heated at 100 C in 0.2% SDS with or without 2% 2-mercaptoethanol; about 40 kDa non-reduced, 10 kDa reduced
[3] = molecular target: HRL40-1 (isolectin of Halimeda renschii lectin HRL40) (Halimeda renschii); experiment: LC-ESI-MS of the intact and of the reduced, S-pyridylethylated protein; LTQ Orbitrap XL; intact isolectin against the subunit mass derived after reduction with tri-n-butylphosphine and alkylation with 4-vinylpyridine

| stoichiometry N [3] | Substance | Ka [1] | Kd [1] | koff [1] | kon [1] | stoichiometry N [2] |
| --- | --- | --- | --- | --- | --- | --- |
| – | Halimeda renschii lectin HRL40 (natural protein) | 2.71e+10 M⁻¹ | 0.0369 nM | 2.63e-06 s⁻¹ | 71400 M⁻¹ s⁻¹ | 4 |
| 4 | HRL40-1 (isolectin of Halimeda renschii lectin HRL40) (natural protein) | – | – | – | – | – |
